Results reported in FireProtDB (doi:10.1021/bi012084+).
Several values for one entry are separate records, joined by “and”; a condition that tells them apart may be missing. Equal values may be shown once.

B1: Glyceraldehyde-3-phosphate dehydrogenase, P00362 (parent)
chain: MAVKVGINGFGRIGRNVFRAALKNPDIEVVAVNDLTDANTLAHLLKYDSVHGRLDAEVSVNGNNLVVNGKEIIVKAERDPENLAWGEIGVDIVVESTGRFTKREDAAKHLEAGAKKVIISAPAKNEDITIVMGVNQDKYDPKAHHVISNASCTTNCLAPFAKVLHEQFGIVRGMMTTVHSYTNDQRILDLPHKDLRRARAAAESIIPTTTGAAKAVALVLPELKGKLNGMAMRVPTPNVSVVDLVAELEKEVTVEEVNAALKAAAEGELKGILAYSEEPLVSRDYNGSTVSSTIDALSTMVIDGKMVKVVSWYDNETGYSHRVVDLAAYIASKGL

Variants of: B1
Settings: Geobacillus stearothermophilus, pH 7.5, Thermal, DSC, KH2PO4/KOH 100 mM, reversible: no, structure 1GD1, whole UniProt chain shown

Variant | Tm (transition: 3) | unfolding enthalpy (calorimetric) (transition: 3) | unfolding enthalpy (calorimetric) | Tm
Y47G S49G | 70.2 °C and 71.2 °C | 127 kcal/mol |  | 
D284G |  |  | 140 kcal/mol and 148 kcal/mol and 119 kcal/mol | 
Y285V |  |  | 182 kcal/mol and 397 kcal/mol and 178 kcal/mol | 
T36Q T40S L44Q |  | 215 kcal/mol and 127 kcal/mol | 215 kcal/mol and 176 kcal/mol | 64.8 °C and 66.8 °C
Y47G R53G |  | 214 kcal/mol and 127 kcal/mol and 180 kcal/mol |  | 
W312F |  |  | 371 kcal/mol and 525 kcal/mol | 
N315T | 65.5 °C |  | 138 kcal/mol | 62.3 °C
